Test results as given in patent publication US20030166014A1 (CURATORS OF THE UNIVERSITY OF MISSOURI, published 2003).

What was measured:
[1] = target: T1, Lotus tetragonolobus lectin (LTL) (Lotus tetragonolobus, UniProt P19664 1-240); assay: lectin ELISA; slope of absorbance at 405 nm against ng Hp
T1 construct: Used at 2 µg/ml in the lectin ELISA
T1 sequence (looked up): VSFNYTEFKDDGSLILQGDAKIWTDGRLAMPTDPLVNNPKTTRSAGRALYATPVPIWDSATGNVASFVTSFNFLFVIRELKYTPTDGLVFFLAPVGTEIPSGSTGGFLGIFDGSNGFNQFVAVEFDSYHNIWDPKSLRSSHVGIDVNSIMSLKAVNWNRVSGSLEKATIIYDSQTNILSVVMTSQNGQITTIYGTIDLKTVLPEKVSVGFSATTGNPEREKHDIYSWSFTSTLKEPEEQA

[2] = target: T2, Maackia amurensis lectin (MAL) (Maackia amurensis); assay: as above
T2 construct: Used at 10 µg/ml in the lectin ELISA
T2 sequence (P0DKL3 30-278): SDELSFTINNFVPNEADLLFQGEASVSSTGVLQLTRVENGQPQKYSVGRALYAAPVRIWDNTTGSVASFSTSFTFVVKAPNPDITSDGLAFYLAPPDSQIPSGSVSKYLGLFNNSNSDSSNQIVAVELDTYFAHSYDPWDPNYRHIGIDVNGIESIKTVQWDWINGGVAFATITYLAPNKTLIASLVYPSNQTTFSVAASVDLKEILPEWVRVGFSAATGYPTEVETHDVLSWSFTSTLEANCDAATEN

B1: endometriosis-associated peritoneal endometriotic haptoglobin (pHp) (other, human)
chain 1: VDSGNDVTDIADDGCPKPPEIAHGYVEHSVRYQCKNYYKLRTEGDGVYTLNDKKQWINKAVGDKLPECEADDGCPKPPEIAHGYVEHSVRYQCKNYYKLRTEGDGVYTLNNEKQWINKAVGDKLPECEAVCGKPKNPANPVQ
chain 2: ILGGHLDAKGSFPWQAKMVSHHNLTTGATLINEQWLLTTAKNLFLNHSENATAKDIAPTLTLYVGKKQLVEIEKVVLHPNYSQVDIGLIKLKQKVSVNERVMPICLPSKDYAEVGRVGYVSGWGRNANFKFTDHLKYVMLPVADQDQCIRHYEGSTVPEKKTPKSPVGVQPILNEHTFCAGMSKYQEDTCYGDAGSAFAVHDLEEDTWYATGILSFDKSCAVAEYGVYVKVTSIQDWVQKTIAEN
modifications: N-glycosylated; 3 kDa less carbohydrate than sHp beta-chain; more alpha(2-3) sialic acid and fucose than sHp
notes: domain: α-subunit;domain: β-subunit; also called peritoneal endometriotic Hp
- fold binding relative to sHp [1]: 11 times (vs sHp)
- fold binding relative to sHp [2]: 10 times (vs sHp)
